B1: DCAF4 (parent)
chain: PGIDRPGMLCSFRIPGAWSCAWSL

Variants of: B1
Experiment: protein stability index of a GFP-peptide fusion (GPS, HEK-293T) (PSI 1-6); higher = more stable
Settings: c terminus: a fixed tail appended
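Also: lentivirally expressed fusions sorted by FACS into six bins by GFP to DsRed ratio, PSI derived from sequencing read proportions per bin multiplied by bin number.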

Variant	protein stability index
PGIDRPGMLCSFRIPGAWWCAWSL [S19W]	4.15
PGIDRPGMLCSFRIPGAWICAWSL [S19I]	2.23
PGIDRPGMLCSFRIPGAWDCAWSL [S19D]	2.11
PGIDRPGMLCSFRIPGAWECAWSL [S19E]	2.19
PGIDRPGMLCSFRIPGAWRCAWSL [S19R]	3.46
PGIDRPGMLCSFRIPGAWGCAWSL [S19G]	2.78
PGIDRPGMLCSFRIPGAWYCAWSL [S19Y]	3.36
PGIDRPGMLCSFRIPGAWQCAWSL [S19Q]	2.74
PGIDRPGMLCSFRIPGAWPCAWSL [S19P]	1.66
PGIDRPGMLCSFRIPGAWMCAWSL [S19M]	2.51
PGIDRPGMLCSFRIPGAWHCAWSL [S19H]	1.6
PGIDRPGMLCSFRIPGAWVCAWSL [S19V]	1.55
PGIDRPGMLCSFRIPGAWTCAWSL [S19T]	2.96
PGIDRPGMLCSFRIPGAWACAWSL [S19A]	3.16
PGIDRPGMLCSFRIPGAWKCAWSL [S19K]	4.35
PGIDRPGMLCSFRIPGAWLCAWSL [S19L]	2.61
PGIDRPGMLCSFRIPVAWSCAWSL [G16V]	2.81
PGIDRPGMLCSFRIPIAWSCAWSL [G16I]	3.24
PGIDRPGMLCSFRIPKAWSCAWSL [G16K]	3.56
PGIDRPGMLCSFRIPDAWSCAWSL [G16D]	2.18
PGIDRPGMLCSFRIPHAWSCAWSL [G16H]	4.24
PGIDRPGMLCSFRIPQAWSCAWSL [G16Q]	2.3
PGIDRPGMLCSFRIPFAWSCAWSL [G16F]	2.83
PGIDRPGMLCSFRIPSAWSCAWSL [G16S]	3.06

Variant	protein stability index
PGIDRPGMLCSFRIPPAWSCAWSL [G16P]	3.49
PGIDRPGMLCSFRIPEAWSCAWSL [G16E]	3.31
PGIDRPGMLCSFRIPLAWSCAWSL [G16L]	3.68
PGIDRPGMLCSFRIPCAWSCAWSL [G16C]	2.39
PGIDRPGMLCSFRIPNAWSCAWSL [G16N]	2.91
PGIDRPGMLCSFRIPYAWSCAWSL [G16Y]	2.84
PGIDRPGMLCSFRIPRAWSCAWSL [G16R]	2.68
PGIDRPGMLCSFRIPTAWSCAWSL [G16T]	3.2
PGIDRPGMLCSFRIPWAWSCAWSL [G16W]	1.49
PGIDRPGMLCSFRIPGAWSCAWSE [L24E]	1.38
PGIDRPGMLCSFRIPGAWSCAWSA [L24A]	3.62
PGIDRPGMLCSFRIPGAWSCAWSD [L24D]	2.85
PGIDRPGMLCSFRIPGAWSCAWSH [L24H]	2.96
PGIDRPGMLCSFRIPGAWSCAWSF [L24F]	3.21
PGIDRPGMLCSFRIPGAWSCATSL [W22T]	1.95
PGIDRPGMLCSFRIPGAWSCAISL [W22I]	3.25
PGIDRPGMLCSFRIPGAWSCAVSL [W22V]	1.44
PGIDRPGMLCSFRIPGAWSCAKSL [W22K]	1.84
PGIDRPGMLCSFRIPGAWSCARSL [W22R]	2.27
PGIDRPGMLCSFRIPGAWSCANSL [W22N]	1.6
PGIDRPGMLCSFRIPGAWSCALSL [W22L]	2.58
PGIDRPGMLCSFRIPGAWSCAESL [W22E]	2.01
PGIDRPGMLCSFRIPGAWSCACSL [W22C]	1.62
PGIDRPGMLCSFRIPGAWSCAPSL [W22P]	1.19

Variant	protein stability index
PGIDRPGMLCSFRIPGAWSCAHSL [W22H]	1.74
PGIDRPGMLCSFRIPGAWSCASSL [W22S]	1.33
PGIDRPGMLCSFRIPGAWSCADSL [W22D]	1.5
PGIDRPGMLCSFRIPGAWSCAMSL [W22M]	3.58
PGIDRPGMLCSFRIPGAWSCAGSL [W22G]	1.95
PGIDRPGMLCSFRIPGAWSCAFSL [W22F]	2.7
PGIDRPGMLCSFRIPGAWSCAQSL [W22Q]	3.24
PGIDRPGMLCSFRIPGAWSCAASL [W22A]	2.54
PGIDRPGMLCSFRIPGAWSCLWSL [A21L]	2.32
PGIDRPGMLCSFRIPGAWSCGWSL [A21G]	3.7
PGIDRPGMLCSFRIPGAWSCMWSL [A21M]	2.96
PGIDRPGMLCSFRIPGAWSCSWSL [A21S]	2.99
PGIDRPGMLCSFRIPGAWSCTWSL [A21T]	2.69
PGIDRPGMLCSFRIPGAWSCPWSL [A21P]	2.54
PGIDRPGMLCSFRIPGAWSCNWSL [A21N]	2.85
PGIDRPGMLCSFRIPGAWSCCWSL [A21C]	2.48
PGIDRPGMLCSFRIPGAWSCDWSL [A21D]	3.1
PGIDRPGMLCSFRIPGAWSCVWSL [A21V]	1.91
PGIDRPGMLCSFRIPGAWSCKWSL [A21K]	3.64
PGIDRPGMLCSFRIPGAWSCWWSL [A21W]	2.83
PGIDRPGMLCSFRIPGAWSCRWSL [A21R]	2.22
PGIDRPGMLCSFRIPGAWSCFWSL [A21F]	2.37
PGIDRPGMLCSFRIPGAWSCYWSL [A21Y]	4.31
PGIDRPGMLCSFRIMGAWSCAWSL [P15M]	2.89

Variant	protein stability index
PGIDRPGMLCSFRILGAWSCAWSL [P15L]	2.04
PGIDRPGMLCSFRISGAWSCAWSL [P15S]	2.74
PGIDRPGMLCSFRIHGAWSCAWSL [P15H]	3.44
PGIDRPGMLCSFRIQGAWSCAWSL [P15Q]	4.94
PGIDRPGMLCSFRICGAWSCAWSL [P15C]	2.96
PGIDRPGMLCSFRIKGAWSCAWSL [P15K]	3.5
PGIDRPGMLCSFRIFGAWSCAWSL [P15F]	3.83
PGIDRPGMLCSFRIEGAWSCAWSL [P15E]	3.99
PGIDRPGMLCSFRINGAWSCAWSL [P15N]	2.56
PGIDRPGMLCSFRIYGAWSCAWSL [P15Y]	3.12
PGIDRPGMLCSFRIIGAWSCAWSL [P15I]	2.28
PGIDRPGMLCSFRIVGAWSCAWSL [P15V]	1.8
PGIDRPGMLCSFRIPGAWSCAWFL [S23F]	2
PGIDRPGMLCSFRIPGAWSCAWTL [S23T]	2.5
PGIDRPGMLCSFRIPGAWSCAWKL [S23K]	2.47
PGIDRPGMLCSFRIPGAWSCAWGL [S23G]	3.64
PGIDRPGMLCSFRIPGAWSCAWWL [S23W]	2.88
PGIDRPGMLCSFRIPGAWSCAWNL [S23N]	2.36
PGIDRPGMLCSFRIPGAWSCAWEL [S23E]	3.03
PGIDRPGMLCSFRIPGAWSCAWAL [S23A]	2.91
PGIDRPGMLCSFRIPGAWSCAWQL [S23Q]	3.24
PGIDRPGMLCSFRIPGAWSCAWLL [S23L]	3.01

— the supplement of paper PMC10567573
